Test results published in IntAct's records for PubMed 20581824.

Experiments:
nr1d1_human NR1D1 [1] = target: nr1d1_human NR1D1 (UniProt P20393)
nr1d1_human NR1D1 [2] = target: nr1d1_human NR1D1 (UniProt P20393); remark: listed apart in the source

nr1d1_human NR1D1, sequence (P20393 whole entry): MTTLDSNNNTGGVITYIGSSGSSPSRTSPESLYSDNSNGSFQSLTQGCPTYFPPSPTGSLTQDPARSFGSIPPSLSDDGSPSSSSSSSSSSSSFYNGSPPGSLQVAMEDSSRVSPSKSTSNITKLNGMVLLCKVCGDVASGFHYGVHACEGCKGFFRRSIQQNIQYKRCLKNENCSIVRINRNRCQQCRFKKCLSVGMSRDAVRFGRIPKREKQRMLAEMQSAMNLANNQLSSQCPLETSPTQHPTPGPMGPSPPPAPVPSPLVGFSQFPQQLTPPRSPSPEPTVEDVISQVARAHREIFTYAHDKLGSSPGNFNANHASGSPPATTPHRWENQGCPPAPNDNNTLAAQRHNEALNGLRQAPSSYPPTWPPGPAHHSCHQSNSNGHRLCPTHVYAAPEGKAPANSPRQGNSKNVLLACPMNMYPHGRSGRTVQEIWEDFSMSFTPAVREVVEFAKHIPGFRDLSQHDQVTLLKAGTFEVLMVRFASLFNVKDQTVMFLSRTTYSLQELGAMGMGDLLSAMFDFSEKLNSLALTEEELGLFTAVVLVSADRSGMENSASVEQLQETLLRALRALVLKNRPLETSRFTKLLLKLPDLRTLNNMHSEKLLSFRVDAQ

| Substance | effect of a mutation on the interaction (nr1d1_human NR1D1 [1]) | effect of a mutation on the interaction (nr1d1_human NR1D1 [2]) |
| --- | --- | --- |
| Nuclear receptor corepressor 1 (Homo sapiens), O75376 H2046A | decreasing interaction |  |
| Nuclear receptor corepressor 1 (Homo sapiens), O75376 H2054A | disrupting interaction |  |
| Nuclear receptor corepressor 1 (Homo sapiens), O75376 I2055A |  | disrupting interaction |
| Nuclear receptor corepressor 1 (Homo sapiens), O75376 I2058A |  | disrupting interaction |
| Nuclear receptor corepressor 1 (Homo sapiens), O75376 I2058A;I2059A |  | disrupting interaction |
| Nuclear receptor corepressor 1 (Homo sapiens), O75376 I2059A |  | disrupting interaction |
| Nuclear receptor corepressor 1 (Homo sapiens), O75376 L2048A | decreasing interaction |  |
| Nuclear receptor corepressor 1 (Homo sapiens), O75376 L2051A | decreasing interaction |  |
